The target of the data set is HIS-RBS1_1412 WT (UniProt Q8TEQ6 1297-1412). Briefly: EMSA. (In EMSA bound probe runs differently from free probe, usually more slowly.)
Chain of HIS-RBS1_1412 WT (Q8TEQ6 1297-1412): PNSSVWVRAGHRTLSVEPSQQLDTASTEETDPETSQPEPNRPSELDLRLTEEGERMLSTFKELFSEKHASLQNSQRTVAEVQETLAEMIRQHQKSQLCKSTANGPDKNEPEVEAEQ

B1: U(5) (ssRNA)
RNA: UUUUU
Take B1: the binding result is “no binding”.

These data come from paper PMC8677033.
